From article doi:10.1101/2024.12.05.626995 (bioRxiv, 2024)

Biological target: T1, GST-tagged mature full-length GET3b (Arabidopsis thaliana, UniProt A1L4Y1 68-411)
T1 sequence: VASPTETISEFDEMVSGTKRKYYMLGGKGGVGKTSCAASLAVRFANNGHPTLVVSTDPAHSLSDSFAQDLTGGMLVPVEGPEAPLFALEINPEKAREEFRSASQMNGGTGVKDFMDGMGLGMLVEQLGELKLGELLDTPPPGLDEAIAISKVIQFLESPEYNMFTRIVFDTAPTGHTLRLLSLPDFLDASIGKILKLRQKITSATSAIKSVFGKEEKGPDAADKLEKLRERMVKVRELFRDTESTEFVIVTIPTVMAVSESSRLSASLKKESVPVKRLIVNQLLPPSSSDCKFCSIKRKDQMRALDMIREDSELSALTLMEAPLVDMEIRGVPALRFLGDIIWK
Assay: pull-down

Row | Binder | binding result
1 | His-tagged C-terminal region of ALB3 (aa 350-462) (domain or fragment) VYLRKLGGAKPNMDENASKIISAGRAKRSIAQPDDAGERFRQLKEQEKRSKKNKAVAKDTVELVEESQSESEEGSDDEEEEAREGALASSTTSKPLPEVGQRRSKRSKRKRTV | binds
2 | His-tagged C-terminal region of ALB4 (aa 334-499) (domain or fragment) VWLQKYGGAKNPVEKFTNLVTKEDKTQQIEKSFSEPLVQKSVSELKIPREKGGEKVTPECPKPGERFRLLKEQEAKRRREKEERQKAEAALSNQNTDKAHEQDEKSDTAIVAEDDKKTELSAVDETSDGTVAVNGKPSIQKDETTNGTFGIGHDTEQQHSHETEKR | binds
